This note sets out measurements from patent publication US20210395713A1 (TRUSTEES OF DARTMOUTH COLLEGE, published 2021).

Experiment in all cases: MHC II competition binding assay
The target in assay [1] is T1, purified recombinant MHC II protein, allele DRB1*0101 (human).
T1 construct: bought from Benaroya Research Institute; also called MHC-II DR molecule

Assay [2] deals with T2, purified recombinant MHC II protein, allele DRB1*0301 (human).
T2 construct: bought from Benaroya Research Institute; also called MHC-II DR molecule

Assay [3] deals with T3, purified recombinant MHC II protein, allele DRB1*0401 (human).
T3 construct: bought from Benaroya Research Institute; also called DR4; MHC-II DR molecule

For assay [4], the target named is T4, purified recombinant MHC II protein, allele DRB1*0701 (human).
T4 construct: bought from Benaroya Research Institute; also called MHC-II DR molecule

Assay [5] addresses T5, purified recombinant MHC II protein, allele DRB1*0801 (human).
T5 construct: bought from Benaroya Research Institute; also called MHC-II DR molecule

Assay [6] addresses T6, purified recombinant MHC II protein, allele DRB1*1101 (human).
T6 construct: bought from Benaroya Research Institute; also called MHC-II DR molecule

In assay [7] the target is T7, purified recombinant MHC II protein, allele DRB1*1301 (human).
T7 construct: bought from Benaroya Research Institute; also called MHC-II DR molecule

For assay [8], the target named is T8, purified recombinant MHC II protein, allele DRB1*1501 (human).
T8 construct: bought from Benaroya Research Institute; also called MHC-II DR molecule

Assay [9] addresses T1, purified recombinant MHC II protein, …. The source holds these as a separate data set.
Assay [10] deals with T2, purified recombinant MHC II protein, …. This is another data set of the same source.
Assay [11] addresses T3, purified recombinant MHC II protein, …. This is another data set of the same source.
Assay [12] has as its target T4, purified recombinant MHC II protein, …. The source holds these as a separate data set.
The target in assay [13] is T6, purified recombinant MHC II protein, …. The source holds these as a separate data set.
For assay [14], the target named is T7, purified recombinant MHC II protein, …. This is another data set of the same source.
Assay [15] addresses T8, purified recombinant MHC II protein, …. The source holds these as a separate data set.
The target in assay [16] is T1, purified recombinant MHC II protein, …. The source holds these as a separate data set.
Assay [17] concerns the target T5, purified recombinant MHC II protein, …. This is another data set of the same source.
The target in assay [18] is T1, purified recombinant MHC II protein, …. The source holds these as a separate data set.
The target of assay [19] is T3, purified recombinant MHC II protein, …. This is another data set of the same source.
Assay [20] deals with T4, purified recombinant MHC II protein, …. This is another data set of the same source.
Assay [21] has as its target T6, purified recombinant MHC II protein, …. The source holds these as a separate data set.
Assay [22] deals with T8, purified recombinant MHC II protein, …. This is another data set of the same source.
Assay [23] concerns the target T1, purified recombinant MHC II protein, …. The source holds these as a separate data set.
Assay [24] addresses T2, purified recombinant MHC II protein, …. This is another data set of the same source.
The target of assay [25] is T3, purified recombinant MHC II protein, …. This is another data set of the same source.
For assay [26], the target named is T4, purified recombinant MHC II protein, …. The source holds these as a separate data set.
Assay [27] addresses T5, purified recombinant MHC II protein, …. This is another data set of the same source.
The target in assay [28] is T6, purified recombinant MHC II protein, …. This is another data set of the same source.
The target in assay [29] is T7, purified recombinant MHC II protein, …. This is another data set of the same source.
Assay [30] addresses T8, purified recombinant MHC II protein, …. This is another data set of the same source.
Assay [31] addresses T4, purified recombinant MHC II protein, …. The source holds these as a separate data set.
The target in assay [32] is T5, purified recombinant MHC II protein, …. This is another data set of the same source.
Assay [33] has as its target T6, purified recombinant MHC II protein, …. The source holds these as a separate data set.
Assay [34] addresses T1, purified recombinant MHC II protein, …. This is another data set of the same source.
For assay [35], the target named is T5, purified recombinant MHC II protein, …. This is another data set of the same source.
Assay [36] deals with T6, purified recombinant MHC II protein, …. The source holds these as a separate data set.
Assay [37] concerns the target T7, purified recombinant MHC II protein, …. This is another data set of the same source.
Assay [38] has as its target T8, purified recombinant MHC II protein, …. This is another data set of the same source.

Like-named read-outs stand apart in the source and are kept apart here.

On to DYVKAGQIIGWSGSTGY [cluster 4 wild-type (C4WT) epitope peptide], for which the concentration for half-maximal inhibition (IC50) in assay [1] was less than 0.01 µM; in assay [2], 31.4 µM; in assay [3] it was less than 0.01 µM; in assay [4], 92.9 µM; in assay [5] it was 62.5 µM; in assay [6], 1.69 µM. The IC50 in assay [7] is 78.5 µM; in [8], less than 0.01 µM.

B1: cluster 4 peptide with Lys95Glu/Ile99Gln (peptide)
peptide: DYVEAGQQIGWSGSTGY
notes: synthetic mutated peptide of the lysostaphin catalytic domain; also called 95-99
Regarding B1, the IC50 was less than 0.01 µM in assay [1]; 25.8 µM in assay [3]; 104 µM in assay [4]; 25.4 µM in [6]; less than 0.01 µM in assay [8].

B2: cluster 4 peptide with Tyr93His/Ile99Gln (peptide)
peptide: DHVKAGQQIGWSGSTGY
notes: synthetic mutated peptide of the lysostaphin catalytic domain; also called 93_99
Turning to B2, the 50% inhibitory concentration (IC50) is less than 0.01 µM in assay [1], less than 0.01 µM in assay [3], 60.5 µM in assay [4] and less than 0.01 µM in assay [8].

B3: cluster 4 peptide with Tyr93His/Lys95Glu/Ile99Gln (peptide)
peptide: DHVEAGQQIGWSGSTGY
notes: synthetic mutated peptide of the lysostaphin catalytic domain; also called 939599
In the case of B3, the concentration for half-maximal inhibition (IC50) in assay [4] is 179 µM.

B4: cluster 4 peptide with Lys95Glu (peptide)
peptide: DYVEAGQIIGWSGSTGY
notes: synthetic mutated peptide of the lysostaphin catalytic domain; also called K95E
Take B4: the IC50 in [1] is less than 0.01 µM; in [2], 1.9 µM; in [3], less than 0.01 µM; in [4], 4.81 µM; in [5], 12.2 µM; in assay [6] it was 6.32 µM. Besides, the half-maximal inhibitory concentration (IC50) was 25.7 µM in assay [7] and less than 0.01 µM in [8].

B5: cluster 4 peptide with Tyr93His/Lys95Glu (peptide)
peptide: DHVEAGQIIGWSGSTGY
notes: synthetic mutated peptide of the lysostaphin catalytic domain; also called 93_95
Consider B5, for which the half-inhibitory concentration (IC50) was found to be 9.98 µM in assay [1]; 110 µM in [2]; 25.5 µM in assay [3]; 24.9 µM in [4]; 30.9 µM in [5]; 25 µM in [6]. Further, the IC50 in [7] was 18.9 µM; in assay [8], 0.06 µM.

B6: cluster 4 peptide with Tyr93His (peptide)
peptide: DHVKAGQIIGWSGSTGY
notes: synthetic mutated peptide of the lysostaphin catalytic domain; also called Y93H
As for B6, the IC50 in assay [1] was 103 µM; in assay [4], 182 µM; in assay [8], less than 0.01 µM.

B7: cluster 4 peptide with Ile99Gln (peptide)
peptide: DYVKAGQQIGWSGSTGY
notes: synthetic mutated peptide of the lysostaphin catalytic domain; also called I99Q
Consider B7, for which the IC50 in assay [1] worked out at 31.7 µM; in assay [3] it was 6.16 µM; in assay [4], 93.1 µM; in [6], 24.3 µM; in assay [8], 66.1 µM.
Turning to GVDFFMNIGTPVKAISSGKIV [cluster 2 wild-type (C2WT) epitope peptide], the IC50 stood at 0.22 µM in assay [9]; 60.1 µM in [10]; 13.7 µM in assay [11]; 8.19 µM in assay [12]; 10.1 µM in assay [13]; 104 µM in [14]. The IC50 in assay [15] is 2.37 µM.

B8: cluster 2 peptide with Lys46His (peptide)
peptide: GVDFFMNIGTPVHAISSGKIV
notes: synthetic mutated peptide of the lysostaphin catalytic domain; also called K46H
For B8, the “fold decrease in binding against C2WT” value in assay [16] was determined as 2 fold. Further, the IC50 is 0.49 µM in assay [9]; 152 µM in [10]; 1.65 µM in assay [11]; 4.46 µM in [12]; 87.5 µM in assay [17]; 18.3 µM in assay [13]. Besides, the IC50 turned out to be 212 µM in assay [14] and 2.55 µM in [15].

B9: cluster 2 peptide with Ile41Glu/Lys46His (peptide)
peptide: GVDFFMNEGTPVHAISSGKIV
notes: synthetic mutated peptide of the lysostaphin catalytic domain; also called 41_46
For B9, the IC50 in assay [9] was less than 0.01 µM; in assay [11] it was less than 0.01 µM; in assay [12] it was 14.3 µM; in [13] it was less than 0.01 µM; in assay [15], less than 0.01 µM.

B10: cluster 2 peptide with Ile41Glu (peptide)
peptide: GVDFFMNEGTPVKAISSGKIV
notes: synthetic mutated peptide of the lysostaphin catalytic domain; also called I41E
On to B10, for which the IC50 was 0.59 µM in assay [9]; 3.48 µM in assay [11]; 7.51 µM in assay [12]; 146 µM in assay [13]; 143 µM in assay [14]; 7.44 µM in [15].

B11: cluster 5 peptide with Ser124Gly (peptide)
peptide: HLHFQRMVNSFGNPTAQ
notes: synthetic mutated peptide of the lysostaphin catalytic domain; also called S124G
Take B11: the IC50 is less than 0.01 µM in assay [18]; 0.04 µM in [19]; 151 µM in assay [20]; 0.3 µM in assay [21]; less than 0.01 µM in assay [22].
As for GVHRQWYMHLSKYNVKVGD [cluster 3 wild-type (C3WT) epitope peptide], the IC50 in assay [23] was less than 0.01 µM; in [24] it was 155 µM; in assay [25], 38.1 µM; in assay [26], 0.41 µM; in [27], 0.14 µM; in assay [28], less than 0.01 µM. The IC50 in [29] was 54.7 µM; in assay [30] it was 9.51 µM.

B12: cluster 3 peptide with Leu83Met (peptide)
peptide: GVHRQWYMHMSKYNVKVGD
notes: synthetic mutated peptide of the lysostaphin catalytic domain; also called L83M
B12: the “fold decrease in binding against C3WT” value in assay [16] is 2000 fold; in [31] it was more than 2 fold; in [32], approximately 5 fold; in assay [33], 10 fold. Further, the IC50 in assay [23] is 32.4 µM; in assay [24] it was 115 µM; in [26] it was 2.09 µM; in [27], 0.37 µM; in assay [28], 0.11 µM; in assay [29] it was 27.4 µM. Further, the IC50 in [30] came to 4.42 µM.
Turning to SAQWLNNYKKGYGYG [cluster 1 wild-type (C1WT) epitope peptide], the IC50 in assay [34] amounted to 215 µM; in assay [35] it was 13.7 µM; in assay [36] it was 0.94 µM; in assay [37] it was 137 µM; in assay [38], 102 µM.

B13: cluster 1 peptide with Asn13His (peptide)
peptide: SAQWLNHYKKGYGYG
notes: synthetic mutated peptide of the lysostaphin catalytic domain
For B13, the IC50 was 4.13 µM in assay [36] and 41.6 µM in assay [37].

B14: cluster 1 peptide with Asn12Gly (peptide)
peptide: SAQWLGNYKKGYGYG
notes: as for B13
Turning to B14, the IC50 in assay [34] was less than 0.01 µM; in [35], 58.6 µM; in assay [36] it was 5.16 µM.
